Assays:
[1] = tested on: tyrosine phosphorylation of endogenous PSTPIP in Baf3 cells; experiment: Tyrosine phosphorylation of endogenous PSTPIP in Baf3 cells (immunoprecipitation, anti-phosphotyrosine blot); type: cell-based, murine
Protocol: Baf3 cells were Iysed in 1% Triton, 50 mM HEPES, 10% glycerol and 5 mM EDTA containing 1 μg/ml aprotinin, PMSF, leupeptin and pepstatin with 1 mM Sodium Vanadate and 10 mM lodoacetic acid. Cells were treated with 0.1 mM Pervanadate for 4 hours before Iysis. Immunoprecipitations were performed in the vanadate-containing Iysis buffer using 1 μg/ml anti-PSTPIP polyclonal antibody and 400 μg of Iysate protein at 4° C. overnight. Western blots were performed using 1 μg/ml affinity purified anti-PSTPIP or 1:5000 dilution of commercial 4G10 anti-phosphotyrosine monoclonal (Upstate Biotech). Signal was detected by HRPO-ECL reagents (Pierce). The C221 -S mutant was as previously described (Cheng et al., (1996) supra). The PTP HSCF D197 -A mutant was generated using PCR. Mutagenesis primer D197A.F ([…]) (SEQ ID NO:24), corresponding to nucleotide 591, and primer D197A.R ([…]) (SEQ ID NO:25) which corresponds to the stop codon, were used in PCR to generate a fragment that could be cut with Mscl and Xbal. pRK.HA.38 WT, a plasmid which encoded the wild type enzyme under the control of the cytomegalovirus promoter (Cheng et al., (1996) supra), was digested with Clal and Mscl and the resulting 600 bp fragment was ligated with the Mscl-Xbal PCR fragment into the Clal and Xbal sites of pRK.tkneo. […]

[2] = target: T1, interaction between PTP HSCF and PSTPIP (Mus musculus, UniProt P97814); experiment: Peptide inhibition of in vitro binding: GST-PST-rich+CTH PTP HSCF precipitating in vitro translated PSTPIP; design: species or system murine; details: FIG. 4D
T1 construct: The longest two hybrid clone was used to isolate a full length cDNA from the original Baf3 two hybrid library; made in house; host or cells: PSTPIP: in vitro transcribed/translated (Promega TnT rabbit reticulocyte system); GST-PTP HSCF fusion: E. coli DH5-alpha, pGEX-4T-2
T1 sequence (P97814 1-415): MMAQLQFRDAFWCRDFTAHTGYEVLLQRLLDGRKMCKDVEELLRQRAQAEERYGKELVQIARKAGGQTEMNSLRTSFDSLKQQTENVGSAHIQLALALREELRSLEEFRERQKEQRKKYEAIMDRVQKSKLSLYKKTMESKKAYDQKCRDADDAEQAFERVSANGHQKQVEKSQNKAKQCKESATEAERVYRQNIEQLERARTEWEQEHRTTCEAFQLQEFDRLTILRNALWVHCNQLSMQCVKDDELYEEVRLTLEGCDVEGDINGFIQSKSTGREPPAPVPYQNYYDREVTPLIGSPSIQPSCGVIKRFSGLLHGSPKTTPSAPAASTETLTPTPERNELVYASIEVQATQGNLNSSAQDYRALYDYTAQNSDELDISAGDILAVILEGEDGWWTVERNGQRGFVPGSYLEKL
Protocol: The binding was carried out according to the method of Wong and Johnson (Wong et al., J. Biol. Chem. 271(35):20981-20984 (1996)). Briefly, 1 μg of plasmid with either the PSTPIP protein or PTP HSCF under the control of the Sp6 promoter was in vitro transcribed/translated using the Promega TnT Rabbit Reticulocyte system. Samples were diluted in 50 mM HEPES, pH 7.2, 1% triton X 100, 10% glycerol, 100 mM NaCI, 5 mM EDTA and 2 μg/ml each of leupeptin, pepstatin, aprotinin, and PMSF. […] This was reacted for 1 hour at 4° C. and then the resin washed 6 times in HEPES/Triton binding buffer before SDS gel electrophoresis. The peptides were synthesized on an automated Milligen 9050 Peptide Synthesizer using standard solid phase chemistry with FMOC protected amino acids on a p-alkoxybenzyl alcohol resin. Dried peptides were re-suspended in the HEPES/Triton Binding buffer at a concentration of 10 mg/ml. Peptide inhibition was performed by adding the peptide first to the in vitro translation product and then the GST-fusion followed by the GSH-Sepharose. The binding/washing steps were as previously described. The peptides synthesized and the PTPs they were derived from were: […]

[3] = target: in vitro transcribed and translated PSTPIP (murine); experiment: peptide competition of the pull-down of in vitro translated PSTPIP by GST-PST-rich+CTH PTP HSCF
PTP HSCF = experiment: In vitro binding assay: GST fusion precipitation of in vitro translated PTP HSCF; details: GST fusion protein ~1 microgram per ml or ~1.5 micromolar; compared with polyclonal anti-PTP HSCF antibody; FIG. 3
Protocol: The binding was carried out according to the method of Wong and Johnson (Wong et al., J. Biol. Chem. 271(35):20981-20984 (1996)). Briefly, 1 μg of plasmid with either the PSTPIP protein or PTP HSCF under the control of the Sp6 promoter was in vitro transcribed/translated using the Promega TnT Rabbit Reticulocyte system. Samples were diluted in 50 mM HEPES, pH 7.2, 1% triton X 100, 10% glycerol, 100 mM NaCI, 5 mM EDTA and 2 μg/ml each of leupeptin, pepstatin, aprotinin, and PMSF. […] This was reacted for 1 hour at 4° C. and then the resin washed 6 times in HEPES/Triton binding buffer before SDS gel electrophoresis. The peptides were synthesized on an automated Milligen 9050 Peptide Synthesizer using standard solid phase chemistry with FMOC protected amino acids on a p-alkoxybenzyl alcohol resin. Dried peptides were re-suspended in the HEPES/Triton Binding buffer at a concentration of 10 mg/ml. Peptide inhibition was performed by adding the peptide first to the in vitro translation product and then the GST-fusion followed by the GSH-Sepharose. The binding/washing steps were as previously described. The peptides synthesized and the PTPs they were derived from were:
In order to characterize the regions involved with the binding between PTP HSCF and PSTPIP, a rapid and direct in vitro binding assay was performed. […]

[4] = target: T2, in vitro transcribed and translated PSTPIP (murine); experiment: peptide competition of the pull-down of in vitro translated PSTPIP by GST-PST-rich+CTH PTP HSCF
T2 chain: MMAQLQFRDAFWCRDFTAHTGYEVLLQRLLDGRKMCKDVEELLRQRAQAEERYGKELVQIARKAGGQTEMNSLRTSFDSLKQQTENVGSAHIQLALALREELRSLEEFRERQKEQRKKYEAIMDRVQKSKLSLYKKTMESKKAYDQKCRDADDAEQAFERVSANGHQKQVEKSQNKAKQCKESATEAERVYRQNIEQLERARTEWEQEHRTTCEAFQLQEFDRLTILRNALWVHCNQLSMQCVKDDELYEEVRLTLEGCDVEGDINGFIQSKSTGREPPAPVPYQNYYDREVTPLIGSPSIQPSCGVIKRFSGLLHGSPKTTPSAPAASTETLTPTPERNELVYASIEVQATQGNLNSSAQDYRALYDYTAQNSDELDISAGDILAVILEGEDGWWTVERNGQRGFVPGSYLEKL

[O]=[V]([O-])([O-])[O-] [vanadate]
tyrosine phosphorylation of endogenous PSTPIP ([1]; with tyrosine phosphatase inhibitor, FIG. 6): significantly enhanced

GGVLRSISVPAPPTLPMADT [control peptide]
ability to block the PTP HSCF-PSTPIP interaction [2]: completely unable to block the interaction

PXXP-HSCF peptide (PTP HSCF 432-451)
concentration at which the peptide blocks the interaction (as low as) [3]: 800 nM

PXXP-PEP peptide (PTP PEP 782-800)
concentration at which the peptide blocks the interaction (as low as) [3]: 800 nM

PXXP-PEST peptide (PTP PEST 761-780)
concentration at which the peptide blocks the interaction (as low as) [3]: 800 nM

pervanadate
phosphotyrosine content of PSTPIP in the absence versus presence of the inhibitor ([1]; anti-phosphotyrosine blot, FIG. 6A): lower phosphotyrosine content

B1: GST PSTPIP: GST fusion protein containing full-length PSTPIP (amino acids 2-415) (protein)
chain: MAQLQFRDAFWCRDFTAHTGYEVLLQRLLDGRKMCKDVEELLRQRAQAEERYGKELVQIARKAGGQTEMNSLRTSFDSLKQQTENVGSAHIQLALALREELRSLEEFRERQKEQRKKYEAIMDRVQKSKLSLYKKTMESKKAYDQKCRDADDAEQAFERVSANGHQKQVEKSQNKAKQCKESATEAERVYRQNIEQLERARTEWEQEHRTTCEAFQLQEFDRLTILRNALWVHCNQLSMQCVKDDELYEEVRLTLEGCDVEGDINGFIQSKSTGREPPAPVPYQNYYDREVTPLIGSPSIQPSCGVIKRFSGLLHGSPKTTPSAPAASTETLTPTPERNELVYASIEVQATQGNLNSSAQDYRALYDYTAQNSDELDISAGDILAVILEGEDGWWTVERNGQRGFVPGSYLEKL
efficiency of precipitating in vitro translated PTP HSCF (PTP HSCF): more efficient at precipitating the phosphatase

GGVLRSISVPAPPTLPMADT [PXXP-CONTROL peptide (PTP HSCF 334-353)]
binding result [4]: no binding

— patent publication US6111073A, “Tyrosine phosphorylated cleavage furrow-associated proteins (PSTPIPs)” (Genentech, Inc., priority 1998, dated 2000)
